Data taken from article PMC13181761, “New Analogs of the Compstatin Family of Clinical Complement Inhibitors with Low Picomolar Target Affinity” (Journal of Medicinal Chemistry, 2026).
Values belong to the binder of their own block, whether it stands above or below them. Bridges are numbered along the chain shown (N, C = ends). Where no end group is shown, it is not given here. [ ]: non-standard residue; d: D form. Trp(1-Me) = Cn1cc(C[C@H](N)C(=O)O)c2ccccc21; Nva(3-Et) = CCC(CC)[C@H](N)C(=O)O; Asu = N[C@@H](CCCCCC(=O)O)C(=O)O; NMeI = CC[C@H](C)[C@H](NC)C(=O)O; Sar = CNCC(=O)O

Columns and labels:
[1] = target: T1, human C3b (human, UniProt P01024 749-1663); experiment: SPR; Biacore T200; human C3b amine-coupled; multicycle kinetics, serial 2-fold dilutions of peptide, 120 s injection, 180 s dissociation, regeneration 1 M NaCl; 25 °C, HBST pH 7.4; Langmuir 1:1 fit, KD = kd/ka; mean of 3 experiments; conditions: both partners purified
T1 construct: Complement C3 beta chain, human; cut product of the C3 precursor; C3b alpha chain (C3 alpha chain after release of C3a), human; Two-chain fragment of C3; amine-coupled to the chip in SPR, free in the cryo-EM sample; also called hC3b; plasma-purified C3b; source: bought: Complement Technology (plasma-purified)

[2] = target: T1, human C3b; experiment: SPR; Biacore T200; human C3b amine-coupled; single-cycle kinetics, 5 increasing concentrations (0.5-40 nM), final dissociation 100-240 min; 25 °C, HBST pH 7.4; global Langmuir 1:1 fit; mean of 3 experiments; conditions: both partners purified

Kd [1]: 103 nM
B1: Cp01 Val3Tbg analog (peptide)
chain: ICXWQDWGAHRCT
modifications: α-tert-butyl-glycine (Tbg) at position 3; acetyl at position 0; cyclic (cyclized by H2O2)

Kd [1]: 1660 nM
B2: Cp01 Val3Nva analog (peptide)
chain: ICXWQDWGAHRCT
modifications: not fully specified; norvaline (Nva) at position 3; acetyl at position 0; cyclic (cyclized by H2O2)

Kd [2]: 13.6 nM | koff [2]: 0.006 s⁻¹ | kon [2]: 430000 M⁻¹ s⁻¹
Binder: [dY]IC[Nva(3-Et)][Trp(1-Me)]QDW[Sar]AHRC[NMeI] (disulfide 3-13 (inferred)) [Cp40 Dea3 analog]

Kd [1]: > 16000 nM
B3: Cp01 W7Bta analog (peptide)
chain: ICVWQDXGAHRCT
modifications: (3-benzothienyl)alanine (Bta) at position 7; acetyl at position 0; cyclic (cyclized by H2O2)

Kd [1]: 2080 nM | koff [1]: 0.23 s⁻¹ | kon [1]: 120000 M⁻¹ s⁻¹
Binder: Ac-ICVWQ[Asu]WGAHRCT (disulfide 2-12 (inferred)) [Cp01 Asp6Asu analog]

Kd [1]: > 16000 nM
Binder: Ac-ICVWQDW[dA]AHRCT (disulfide 2-12 (inferred)) [Cp01 Gly8D-Ala analog]
